T1: EsCas13d, nuclease-dead (Eubacterium siraeum, UniProt B0MS50, R295A;H300A;R849A;H854A)
T1 sequence: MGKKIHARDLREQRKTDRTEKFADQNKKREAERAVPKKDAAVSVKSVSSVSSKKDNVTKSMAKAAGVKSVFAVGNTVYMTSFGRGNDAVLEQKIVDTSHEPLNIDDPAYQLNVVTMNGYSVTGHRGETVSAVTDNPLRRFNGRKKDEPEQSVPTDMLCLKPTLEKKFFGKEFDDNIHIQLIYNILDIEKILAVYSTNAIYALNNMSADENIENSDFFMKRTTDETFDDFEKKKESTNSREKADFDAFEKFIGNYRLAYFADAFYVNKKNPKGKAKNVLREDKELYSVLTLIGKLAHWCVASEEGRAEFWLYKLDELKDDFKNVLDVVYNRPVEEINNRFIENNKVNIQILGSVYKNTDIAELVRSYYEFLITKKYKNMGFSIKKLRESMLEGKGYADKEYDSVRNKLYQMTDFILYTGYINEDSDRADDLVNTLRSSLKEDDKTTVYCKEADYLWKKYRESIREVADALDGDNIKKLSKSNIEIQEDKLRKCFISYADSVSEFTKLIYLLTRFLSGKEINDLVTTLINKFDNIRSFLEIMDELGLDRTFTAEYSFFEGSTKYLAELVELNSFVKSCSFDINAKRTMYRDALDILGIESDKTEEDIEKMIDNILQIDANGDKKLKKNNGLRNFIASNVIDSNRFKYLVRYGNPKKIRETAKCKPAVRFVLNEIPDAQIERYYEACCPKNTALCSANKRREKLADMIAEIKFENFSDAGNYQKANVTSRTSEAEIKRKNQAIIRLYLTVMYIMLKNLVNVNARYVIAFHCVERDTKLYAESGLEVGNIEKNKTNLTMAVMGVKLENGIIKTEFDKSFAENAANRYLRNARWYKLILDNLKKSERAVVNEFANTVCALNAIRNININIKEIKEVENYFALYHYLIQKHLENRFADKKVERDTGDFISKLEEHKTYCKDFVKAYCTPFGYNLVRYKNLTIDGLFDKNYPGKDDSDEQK


Target: T1, EsCas13d, nuclease-dead
Assay: crRNA (strand 1, pre-loaded); Mg2+; 40 mM Tris-HCl pH 7.5, 150 mM NaCl, 6 mM MgCl2, 1 mM DTT, 0.1% Tween-20, 0.2 mg/ml BSA; 25 C; 10 min per concentration, then washed
Conditions: tags: His6-TwinStrep-SUMO cleaved; N-terminal SNAP kept (SNAP-Surface 488); label: 3' end held by stalled T7 RNA polymerase

| Binder | Kd [nM] |
| --- | --- |
| target 1 MT 5'PFS GCC 3'PFS UUU (mixed) RNA 1: CACCCGUGCAAAAAUGCAGGGGUCUAAAACUGAGCGGAUAACCUCUCUAUGG RNA 2: GGGAAUGGAUCCACAUCUACGAAUUCGCCCCAUAGAGAGGUUAUCCGCUCAUUUAGAUCGGAAGAGCACACGU | 9.4 ± 2 |
| target 1 MT 5'PFS UUC 3'PFS CCU (mixed) RNA 1: CACCCGUGCAAAAAUGCAGGGGUCUAAAACUGAGCGGAUAACCUCUCUAUGG RNA 2: GGGAAUGGAUCCACAUCUACGAAUUCUUCCCAUAGAGAGGUUAUCCGCUCACCUAGAUCGGAAGAGCACACGU | 66 ± 27 |
| target 1 MT 5'PFS AGG 3'PFS CGC (mixed) RNA 1: CACCCGUGCAAAAAUGCAGGGGUCUAAAACUGAGCGGAUAACCUCUCUAUGG RNA 2: GGGAAUGGAUCCACAUCUACGAAUUCAGGCCAUAGAGAGGUUAUCCGCUCACGCAGAUCGGAAGAGCACACGU | 44 ± 19 |
| target 1 MT 5'PFS GAA 3'PFS CCG (mixed) RNA 1: CACCCGUGCAAAAAUGCAGGGGUCUAAAACUGAGCGGAUAACCUCUCUAUGG RNA 2: GGGAAUGGAUCCACAUCUACGAAUUCGAACCAUAGAGAGGUUAUCCGCUCACCGAGAUCGGAAGAGCACACGU | 21 ± 5.5 |
| target 1 MT 5'PFS GCU 3'PFS AUU (mixed) RNA 1: CACCCGUGCAAAAAUGCAGGGGUCUAAAACUGAGCGGAUAACCUCUCUAUGG RNA 2: GGGAAUGGAUCCACAUCUACGAAUUCGCUCCAUAGAGAGGUUAUCCGCUCAAUUAGAUCGGAAGAGCACACGU | 76 ± 31 |
| target 1 C2U,G12C (mixed) RNA 1: CACCCGUGCAAAAAUGCAGGGGUCUAAAACUGAGCGGAUAACCUCUCUAUGG RNA 2: GGGAAUGGAUCCACAUCUACGAAUUCGUACCAUAGAGAGCUUAUCCGCUUACCGAGAUCGGAAGAGCACACGU | 7.1 ± 0.5 |
| target 1 MT 5'PFS AUG 3'PFS UGA (mixed) RNA 1: CACCCGUGCAAAAAUGCAGGGGUCUAAAACUGAGCGGAUAACCUCUCUAUGG RNA 2: GGGAAUGGAUCCACAUCUACGAAUUCAUGCCAUAGAGAGGUUAUCCGCUCAUGAAGAUCGGAAGAGCACACGU | 52 ± 19.5 |
| target 1 MT 5'PFS UGA 3'PFS ACG (mixed) RNA 1: CACCCGUGCAAAAAUGCAGGGGUCUAAAACUGAGCGGAUAACCUCUCUAUGG RNA 2: GGGAAUGGAUCCACAUCUACGAAUUCUGACCAUAGAGAGGUUAUCCGCUCAACGAGAUCGGAAGAGCACACGU | 110 ± 50 |
| target 1 MT 5'PFS CAG 3'PFS UUG (mixed) RNA 1: CACCCGUGCAAAAAUGCAGGGGUCUAAAACUGAGCGGAUAACCUCUCUAUGG RNA 2: GGGAAUGGAUCCACAUCUACGAAUUCCAGCCAUAGAGAGGUUAUCCGCUCAUUGAGAUCGGAAGAGCACACGU | 19.7 ± 3.55 |
| target 1 MT 5'PFS GAG 3'PFS UAC (mixed) RNA 1: CACCCGUGCAAAAAUGCAGGGGUCUAAAACUGAGCGGAUAACCUCUCUAUGG RNA 2: GGGAAUGGAUCCACAUCUACGAAUUCGAGCCAUAGAGAGGUUAUCCGCUCAUACAGAUCGGAAGAGCACACGU | ~60 |
| target 1 MT 5'PFS ACC 3'PFS UGU (mixed) RNA 1: CACCCGUGCAAAAAUGCAGGGGUCUAAAACUGAGCGGAUAACCUCUCUAUGG RNA 2: GGGAAUGGAUCCACAUCUACGAAUUCACCCCAUAGAGAGGUUAUCCGCUCAUGUAGAUCGGAAGAGCACACGU | ~19 |
| target 1 MT 5'PFS GGC 3'PFS ACG (mixed) RNA 1: CACCCGUGCAAAAAUGCAGGGGUCUAAAACUGAGCGGAUAACCUCUCUAUGG RNA 2: GGGAAUGGAUCCACAUCUACGAAUUCGGCCCAUAGAGAGGUUAUCCGCUCAACGAGAUCGGAAGAGCACACGU | 13.5 ± 2.85 |
| target 1 MT 5'PFS GCU 3'PFS AUA (mixed) RNA 1: CACCCGUGCAAAAAUGCAGGGGUCUAAAACUGAGCGGAUAACCUCUCUAUGG RNA 2: GGGAAUGGAUCCACAUCUACGAAUUCGCUCCAUAGAGAGGUUAUCCGCUCAAUAAGAUCGGAAGAGCACACGU | 57 ± 16 |
| target 1 MT 5'PFS AGG 3'PFS CGG (mixed) RNA 1: CACCCGUGCAAAAAUGCAGGGGUCUAAAACUGAGCGGAUAACCUCUCUAUGG RNA 2: GGGAAUGGAUCCACAUCUACGAAUUCAGGCCAUAGAGAGGUUAUCCGCUCACGGAGAUCGGAAGAGCACACGU | 41 ± 11.5 |
| target 1 MT 5'PFS GAG 3'PFS UAA (mixed) RNA 1: CACCCGUGCAAAAAUGCAGGGGUCUAAAACUGAGCGGAUAACCUCUCUAUGG RNA 2: GGGAAUGGAUCCACAUCUACGAAUUCGAGCCAUAGAGAGGUUAUCCGCUCAUAAAGAUCGGAAGAGCACACGU | 28.5 ± 8 |
| target 1 MT 5'PFS GCC 3'PFS CAG (mixed) RNA 1: CACCCGUGCAAAAAUGCAGGGGUCUAAAACUGAGCGGAUAACCUCUCUAUGG RNA 2: GGGAAUGGAUCCACAUCUACGAAUUCGCCCCAUAGAGAGGUUAUCCGCUCACAGAGAUCGGAAGAGCACACGU | 44 ± 21 |
| target 1 MT 5'PFS UCA 3'PFS ACA (mixed) RNA 1: CACCCGUGCAAAAAUGCAGGGGUCUAAAACUGAGCGGAUAACCUCUCUAUGG RNA 2: GGGAAUGGAUCCACAUCUACGAAUUCUCACCAUAGAGAGGUUAUCCGCUCAACAAGAUCGGAAGAGCACACGU | 13.2 ± 3.35 |
| target 1 MT 5'PFS CGC 3'PFS CCG (mixed) RNA 1: CACCCGUGCAAAAAUGCAGGGGUCUAAAACUGAGCGGAUAACCUCUCUAUGG RNA 2: GGGAAUGGAUCCACAUCUACGAAUUCCGCCCAUAGAGAGGUUAUCCGCUCACCGAGAUCGGAAGAGCACACGU | 19 ± 7 |
| target 1 MT 5'PFS CUG 3'PFS CCG (mixed) RNA 1: CACCCGUGCAAAAAUGCAGGGGUCUAAAACUGAGCGGAUAACCUCUCUAUGG RNA 2: GGGAAUGGAUCCACAUCUACGAAUUCCUGCCAUAGAGAGGUUAUCCGCUCACCGAGAUCGGAAGAGCACACGU | 3.05 ± 0.55 |
| target 1 MT 5'PFS UCA 3'PFS ACG (mixed) RNA 1: CACCCGUGCAAAAAUGCAGGGGUCUAAAACUGAGCGGAUAACCUCUCUAUGG RNA 2: GGGAAUGGAUCCACAUCUACGAAUUCUCACCAUAGAGAGGUUAUCCGCUCAACGAGAUCGGAAGAGCACACGU | ~65 |
| target 1 MT 5'PFS GAA 3'PFS CCU (mixed) RNA 1: CACCCGUGCAAAAAUGCAGGGGUCUAAAACUGAGCGGAUAACCUCUCUAUGG RNA 2: GGGAAUGGAUCCACAUCUACGAAUUCGAACCAUAGAGAGGUUAUCCGCUCACCUAGAUCGGAAGAGCACACGU | ~21 |
| target 1 MT 5'PFS GAG 3'PFS UAG (mixed) RNA 1: CACCCGUGCAAAAAUGCAGGGGUCUAAAACUGAGCGGAUAACCUCUCUAUGG RNA 2: GGGAAUGGAUCCACAUCUACGAAUUCGAGCCAUAGAGAGGUUAUCCGCUCAUAGAGAUCGGAAGAGCACACGU | 46.5 ± 15.5 |
| target 1 MT 5'PFS GUU 3'PFS UUU (mixed) RNA 1: CACCCGUGCAAAAAUGCAGGGGUCUAAAACUGAGCGGAUAACCUCUCUAUGG RNA 2: GGGAAUGGAUCCACAUCUACGAAUUCGUUCCAUAGAGAGGUUAUCCGCUCAUUUAGAUCGGAAGAGCACACGU | 8.95 ± 0.95 |
| target 1 MT 5'PFS UCA 3'PFS ACU (mixed) RNA 1: CACCCGUGCAAAAAUGCAGGGGUCUAAAACUGAGCGGAUAACCUCUCUAUGG RNA 2: GGGAAUGGAUCCACAUCUACGAAUUCUCACCAUAGAGAGGUUAUCCGCUCAACUAGAUCGGAAGAGCACACGU | 14 ± 4.5 |
| target 1 MT 5'PFS GCA 3'PFS ACC (mixed) RNA 1: CACCCGUGCAAAAAUGCAGGGGUCUAAAACUGAGCGGAUAACCUCUCUAUGG RNA 2: GGGAAUGGAUCCACAUCUACGAAUUCGCACCAUAGAGAGGUUAUCCGCUCAACCAGAUCGGAAGAGCACACGU | ~32 |
| target 1 MT 5'PFS CUG 3'PFS AAG (mixed) RNA 1: CACCCGUGCAAAAAUGCAGGGGUCUAAAACUGAGCGGAUAACCUCUCUAUGG RNA 2: GGGAAUGGAUCCACAUCUACGAAUUCCUGCCAUAGAGAGGUUAUCCGCUCAAAGAGAUCGGAAGAGCACACGU | 12.4 ± 3.4 |
| target 1 C4A,A9U (mixed) RNA 1: CACCCGUGCAAAAAUGCAGGGGUCUAAAACUGAGCGGAUAACCUCUCUAUGG RNA 2: GGGAAUGGAUCCACAUCUACGAAUUCGUACCAUAGAGAGGUUUUCCGAUCACCGAGAUCGGAAGAGCACACGU | 4.45 ± 0.25 |
| target 1 MT 5'PFS AGG 3'PFS CGU (mixed) RNA 1: CACCCGUGCAAAAAUGCAGGGGUCUAAAACUGAGCGGAUAACCUCUCUAUGG RNA 2: GGGAAUGGAUCCACAUCUACGAAUUCAGGCCAUAGAGAGGUUAUCCGCUCACGUAGAUCGGAAGAGCACACGU | ~90 |

Source: PMC10786891, “Massively parallel profiling of RNA-targeting CRISPR-Cas13d”
